Results reported in PMC8022922.

Target: AfMAT1-1-1_(78–235) (Aspergillus fumigatus)
Assay: SEC

AfMAT1-1-1_(78–235) (domain or fragment)
stoichiometry N: 2
